In PMC8294390 (2021):

Target: T1, TNFR1 (Homo sapiens, UniProt P19438)
T1 chain: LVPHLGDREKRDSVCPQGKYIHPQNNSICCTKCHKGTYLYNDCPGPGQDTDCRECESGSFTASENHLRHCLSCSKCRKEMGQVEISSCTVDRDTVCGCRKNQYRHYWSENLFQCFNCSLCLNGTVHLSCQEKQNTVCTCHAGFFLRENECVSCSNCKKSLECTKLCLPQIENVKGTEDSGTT
Assay: SPR

B1: Atrosimab (antibody)
chain 1: HVQLVQSGAEVKKPGSSVKVSCKASGYTFTDFYINWVRQAPGQGLEWIGEIVPSQGEAKYNDKFKARVTITADKSTSTAYMELSSLRSEDTAVYYCARWDFLDYWGQGTTVTVSSGTGGGSGPSVFLFPPKPKDTLMISRTPEVTCVVVDVSHEDPEVKFNWYVDGVEVHNAKTKPREEQYNSTYRVVSVLTVLHQDWLNGKEYKCKVSNKGLPSSIEKTISKAKGQPREPSVFIFPPSDEQLKSGTASVVCLVNNFYPRDIAVEWEVDNALQSGNSQESVTEQDSKDSTYSLSSTLTLSKADYEKHKVYSCSVMHEALHNHYTQKSFNRGEC
chain 2: DVQMTQSPSSLSASVGDRVTITCRSSQSLLHSNGNTYLHWYQQKPGKAPKLLIYTVSNRFSGVPSRFSGSGSGTDFTLTISSLQPEDFATYYCSQSTHVPYTFGGGTKVEIKGTGGGSGPSVFLFPPKPKDTLMISRTPEVTCVVVDVSHEDPEVKFNWYVDGVEVHNAKTKPREEQYNSTYRVVSVLTVLHQDWLNGKEYKCKVSNKGLPSSIEKTISKAKGQPREPSVFPLAPSSKSTSGGTAALGCLVKDYFPSDIAVEWESGALTSGVHTFPAVLQSSGLYSLSSVVTVPSSSLGTQTYSCSVMHEALHNHYTQKSVEPKSC
  Kd: 5.01 nM
